Experimental data taken from the supplement of paper PMC12764529.
± gives the half width of the 95% confidence interval.

Assay: folding stability dG unfold from chymotrypsin proteolysis; higher = more stable
Summary of the method: (§1)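 Designed mini-proteins (under 80 residues, no cysteine) in a PA-tagged cDNA display construct were digested with trypsin and chymotrypsin. Each protease was used at 11 concentrations (threefold dilutions) plus a no-protease condition, followed by sequencing. K50 was inferred by Bayesian fitting of sequencing counts, and unfolding free energy was derived against a sequence-predicted unfolded-state K50 and a shared folded-state K50, per protease or combined. Only designs with AlphaFold2 dimer inter-PAE above 15 were kept.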

Row | Sequence | folding stability dG unfold
1 | SAGGSAGGSAGKTIKILLVVKDPETNEYYFLVMEIHLDENGNLHMKIKVFPTKEDAEKALSAGGSAGGSAGG [r11_792_TrROS_Hall] | 4.15 ± 0.085 kcal/mol
2 | SAGGSAGGELEVEIVSVEFDEETKEIRIKIYVNGKLIEEKTIKIEPVKVYYKTKDGKKVSAEDLSAGGSAGG [r6_832_TrROS_Hall] | 1.16 ± 0.26 kcal/mol
3 | SAGGSAGGSEKTLVTRTPDGYLLTLTEFTLPDGSKVTLATITFPNTGKTVTVPASLVPADATGSAGGSAGGS [r12_797_TrMRF] | 3.061 ± 0.011 kcal/mol
4 | SAGGSAGGSAGYESVVNELKRKGYKVEVKKTPDGTYVVTVTKKDGTVETITLGPEGGKISSAGGSAGGSAGG [r17_503_JUSTAS] | 4.36 ± 0.12 kcal/mol
5 | MYVVRAKFKIKGEDGSEFEAETVILVEETPEEAKEKVEEKAREIAEELGLSLENITEIEVEVLSLDEELLPS [r1_159_TrMRF] | 2.16 ± 0.15 kcal/mol
6 | SAGMIEISEEGDTLTVTVPPGVSLEEVREYVEKKYPGMDLQEITETALPDGTTTVTFNVKKNPPSPKLLSAG [r5_110_JUSTAS] | 0.699 ± 0.23 kcal/mol
7 | SAGGSAGGSAGMVIELPDGRKAIIVKYDKETKRFYVEIVDKKTGEKKIYEFKSLEEALKASAGGSAGGSAGG [r17_300_TrROS_Hall] | 2.86 ± 0.092 kcal/mol
8 | KKVKIEIEVLSKTEEGYVMIAKAKYEEVEKVFEKPYKSKNPIETIKKIVKELFPGPEVTEVKVKYYPKEKKS [r1_399_TrMRF] | 1.47 ± 0.11 kcal/mol
9 | SAGGSAGGVKEALEELLKKLKPGEKKTITLEIEVDGKLVKIEIEVLPDGEIKITKIEEIPKEDLSAGGSAGG [r6_87_TrROS_Hall] | 1.95 ± 0.096 kcal/mol
10 | SAGGSAGGAVVKLPGNTVMTIDPSTGIAYVTDPSGKVTKYTLTKFPDKTLWEEEPVEEIPSDLLSAGGSAGG [r6_324_JUSTAS] | 1.44 ± 0.16 kcal/mol
11 | SAGGSAGGSAGGMKPGEKPEVEYRVRIYDADTGEWREVPLEDLKKLKLPPGAVVEIEKVSAGGSAGGSAGGS [r10_1121_TrROS_Hall] | 3.42 ± 0.067 kcal/mol

Assay: folding stability dG unfold (combined trypsin and chymotrypsin); higher = more stable
Summary of the method: as §1

Row | Sequence | folding stability dG unfold
12 | SAGGSVVTIVEVVPEDKKIVIKAPGNPITIPLENIKEIKLIPEKGYLEITINNTTIKVPLNNPNSISAGGSA [r2_48_JUSTAS] | 0.779 ± 0.071 kcal/mol
13 | SAGGSAGGSAGPIVLIKIKNKNGKEIEIEMSLEELKKKLPKELKNMKVEIVEVKEVKVEKSAGGSAGGSAGG [r11_353_TrROS_Hall] | 0.56 ± 0.27 kcal/mol
14 | SAGGMKVVIYVKDPEKFLKAIEEIENIPLENVKFEPLEGDYYKYEFPNLEAVEELIKKGYDILKIEPSAGGS [r16_381_TrMRF] | 2.34 ± 0.083 kcal/mol
15 | SAMSLEDMTPEELEELVKELIEKLREELEKEGKTIKPGETIEIEIEVKGKKLKIKITVDKDGNIKIEVESAG [r14_501_TrROS_Hall] | 2.97 ± 0.092 kcal/mol
16 | SAGGPVLRLSFPTRTPDGELVRVEVVYDPETGALLVRVYSLTRPNRAVLYLVDPENPLTVLRAEELPLSAGG [r13_400_TrMRF] | 2.82 ± 0.18 kcal/mol
17 | SAGGMKLVVTKVGEDDNTEYYLITDPGSAEAIREAIKKLVPKDLPYKVTVLSYDPATGTYTVLVEVKRSAGG [r13_491_JUSTAS] | 3.44 ± 0.11 kcal/mol
18 | SAGGGREIKVEFEIPHPNGNQMRITVTIYRSPGGIRIKIPVSYTDPEYRDYMREWAEYLARRIAKELSAGGS [r8_416_TrROS] | 3.46 ± 0.047 kcal/mol
19 | SAGGSAGGMKVEVVFLVPGEVFSKFTPPLSEDDPVLLVLVFDVPAPPPVPRYVYDPETGEWRPESAGGSAGG [r6_211_TrMRF] | 3.22 ± 0.11 kcal/mol
20 | SAGGPPIKKIEITKIHPGKGIIQVSIKLPGDGHPIMVRAEIDDPEPGKIKIEIQDPNNGQPQEITIKFSAGG [r13_337_TrROS] | 1.1 ± 0.28 kcal/mol
21 | TTVTTPKNGLININLTDKKGNKYTFTAPVKDPVETLEKLKKLIKDLFPEYKDVKVKVVSVDGINIKVVVDIS [r1_389_TrMRF] | 3.26 ± 0.1 kcal/mol
22 | SAEEVEIEIEIVIKMSEEEAERLAKELAEELARELGAEIVDVEVEVVEVDGELYVRIRVKIRLPKEELESAG [r14_219_TrROS_Hall] | 4.23 ± 0.14 kcal/mol
23 | SAGGSAGGMEVPPDQRVLVLDVEGTPEAIEAFAEELVRRGFDKPVAVVAVDPETGKVTIVVPEDSAGGSAGG [r6_652_TrMRF] | 1.08 ± 0.11 kcal/mol
24 | SAGGSAGGSAGIKIVAPSPELADMIAKEIAKEFGLPGKIKDIEIEVIPYKPTPNGGYQPYSAGGSAGGSAGG [r17_237_TrROS] | -0.383 ± 0.81 kcal/mol
25 | SAGGSAGGSSVSVGVPSSYASVEVTVLKEEPGKGLVTVKVTTTVPGTGEVLTETVTIPRSELLSAGGSAGGS [r12_964_JUSTAS] | 0.828 ± 0.046 kcal/mol
26 | SAGMEVEWEIGDADEDGYVRLTVKAVLLIPETGKPVVVEAEIKMPIEELENEEVLKELARKVVEEAEAESAG [r5_964_TrMRF] | 1.85 ± 0.086 kcal/mol
27 | SAGGSAGGSAGGSKIENIKDIERNPNPDGHYMITIPNGWQIVVRMDKNGKMEIEIVPLKSAGGSAGGSAGGS [r4_177_TrROS] | 1.82 ± 0.15 kcal/mol
28 | SAGGSASLASLRKVGETVTYTITPDGTLTVTTHTFYRDPVTGELVVESTTTTTPIPPGDAAALAALSAGGSA [r15_207_JUSTAS] | 2.5 ± 0.098 kcal/mol
29 | SAGGSAGGMVETKLVESEELPGNRRVLTYRVTEPDSLYRVTVELTLDPSGTVLSSKTTTEPIPLSAGGSAGG [r6_20_JUSTAS] | 1.04 ± 0.073 kcal/mol
30 | FRFTIPLPDGKKIIIDYRPMPDGNYMFDVKLQLPNGKERTIPIMVPREEFPGMPMEEMAETMVKEALKKLKS [r1_92_TrROS] | 3.3 ± 0.26 kcal/mol
31 | SAGGSAGGSGSSSLLEETTDASGVRHLLTLVRLPGGKVLLVTTTVYPSGESTTTTEETDGSLLSAGGSAGGS [r12_995_JUSTAS] | 2.11 ± 0.059 kcal/mol
32 | SAGGSAMTVKVRLRVRRRVFNEDGELVAEEELELEVEVEVRPPPPPPPPPLTAEELAEKLGLEPEDSAGGSA [r15_572_TrROS_Hall] | 3.19 ± 0.39 kcal/mol
